B1: Gas7 F-BAR domain (domain or fragment, human, UniProt O60861 196-456, looked up)
chain: TEWSYCDYFWADKKDPQGNGTVAGFELLLQKQLKGKQMQKEMSEFIRERIKIEEDYAKNLAKLSQNSLASQEEGSLGEAWAQVKKSLADEAEVHLKFSAKLHSEVEKPLMNFRENFKKDMKKCDHHIADLRKQLASRYASVEKARKALTERQRDLEMKTQQLEIKLSNKTEEDIKKARRKSTQAGDDLMRCVDLYNQAQSKWFEEMVTTTLELERLEVERVEMIRQHLCQYTQLRHETDMFNQSTVEPVDQLLRKVDPAKD
B2: FCHSD1 F-BAR domain (domain or fragment, human, UniProt Q86WN1 12-282, looked up)
chain: QEVKLRFLEQLSILQTWQQREADLLEDIRSYSKQRAAIEREYGQALQKLAGPFLKREGHRSGEMDSRGRTVFGAWRCLLDATVAGGQTRLQASDRYRDLAGGTGRSAKEQVLRKGTENLQRAQAEVLQSVRELSRSRKLYGQRERVWALAQEKAADVQARLNRSDHGIFHSRTSLQKLSTKLSAQSAQYSQQLQAARNEYLLNLVATNAHLDHYYQEELPALLKALVSELSEHLRDPLTSLSHTELEAAEVILEHAHRGEQTTSQVSWEQD
B3: FCHSD2 F-BAR domain (domain or fragment, human, UniProt O94868 8-282, looked up)
chain: VKVTQELKNIQVEQMTKLQAKHQAECDLLEDMRTFSQKKAAIEREYAQGMQKLASQYLKRDWPGVKADDRNDYRSMYPVWKSFLEGTMQVAQSRMNICENYKNFISEPARTVRSLKEQQLKRCVDQLTKIQTELQETVKDLAKGKKKYFETEQMAHAVREKADIEAKSKLSLFQSRISLQKASVKLKARRSECNSKATHARNDYLLTLAAANAHQDRYYQTDLVNIMKALDGNVYDHLKDYLIAFSRTELETCQAVQNTFQFLLENSSKVVRDYN

Target: the molecule itself
Experiment: AUC

Stoichiometry N, > 2 dimers:
B1
B2
B3
